Molecular target: T1, EGFR (Homo sapiens, UniProt P00533)
T1 construct: Full length EGFR was immunoprecipitated with Mab108, and allowed to autophosphorylate; expressed in transfected cells; host or cells: NIH-3T3 cells transfected with wild-type EGFR (HER14)
Assay: Binding of PLC-γ to immunoprecipitated, autophosphorylated full length EGFR; fraction remaining bound after washes
Settings: Mean+/−SEM, n=4; anti PLC-γ blot with (125I)Protein A, bands quantitated in a γ counter
Experimental: FIG. 11 is a gel pattern showing that phosphorylation of PLC-γ reduces its binding to the EGF receptor. Full length EGFR was immunoprecipitated with Mab108, and allowed to autophosphorylate. Lysate from PLC-γ overexpressing 3T-P1 cells was added and mixed for 90 min at 4° C. After binding, ATP was added to one half of the samples allowing the PLC-γ molecules to be phosphorylated by the EGF receptor. SDS-PAGE sample buffer-was then added to one half of the EGFR-PLC-γ complexes (NO WASH, left panel) and directly loaded onto the 6% gel. The other half was washed three times with HNTG and then loaded on the gel (WASH, right panel. After running duplicate samples on SDS-PAGE, the proteins were transferred to nitrocellulose and probed with anti PLC-γ and (^125I)Protein A. The bands were subsequently cut from the nitrocellulose and quantitated in a γ counter. After three washes with HNTG, 50+/−5% (Mean+/−SEM, n=4) of the non-phosphorylated PLC-γ remained bound to the EGFR while only 22+/−4% of the phosphorylated PLC-γ remained (exposure time: 12 h).
The techniques used are described in several references from the present inventors, laboratory (Margolis, B. L. et al., J. Biol. Chem. 264: 10667-10671 (1989); Cell 57:1101-1107 (1989)). […]

B1: phosphorylated PLC-γ: PLC-γ from 3T-P1 cell lysate phosphorylated by the EGF receptor after addition of ATP (protein, UniProt Q62077 2-1302, looked up)
1-phosphatidylinositol …: AGVATPCANGCGPGAPSEAEVLHLCRSLEVGTVMTLFYSKKSQRPERKTFQVKLETRQITWSRGADKIEGSIDIREIKEIRPGKTSRDFDRYQEDPAFRPDQSHCFVILYGMEFRLKTLSLQATSEDEVNMWIKGLTWLMEDTLQAATPLQIERWLRKQFYSVDRNREDRISAKDLKNMLSQVNYRVPNMRFLRERLTDLEQRSGDITYGQFAQLYRSLMYSAQKTMDLPFLETNALRTGERPEHCQVSLSEFQQFLLEYQGELWAVDRLQVQEFMLSFLRDPLREIEEPYFFLDELVTFLFSKENSVWNSQLDAVCPDTMNNPLSHYWISSSHNTYLTGDQFSSESSLEAYARCLRMGCRCIELDCWDGPDGMPVIYHGHTLTTKIKFSDVLHTIKEHAFVASEYPVILSIEDHCSIAQQRNMAQHFRKVLGDTLLTKPVDIAADGLPSPNQLRRKILIKHKKLAEGSAYEEVPTSVMYSENDISNSIKNGILYLEDPVNHEWYPHYFVLTSSKIYYSEETSSDQGNEDEEEPKEASSSTELHSSEKWFHGKLGAGRDGRHIAERLLTEYCIETGAPDGSFLVRESETFVGDYTLSFWRNGKVQHCRIHSRQDAGTPKFFLTDNLVFDSLYDLITHYQQVPLRCNEFEMRLSEPVPQTNAHESKEWYHASLTRAQAEHMLMRVPRDGAFLVRKRNEPNSYAISFRAEGKIKHCRVQQEGQTVMLGNSEFDSLVDLISYYEKHPLYRKMKLRYPINEEALEKIGTAEPDYGALYEGRNPGFYVEANPMPTFKCAVKALFDYKAQREDELTFTKSAIIQNVEKQDGGWWRGDYGGKKQLWFPSNYVEEMINPAVLEPEREHLDENSPLGDLLRGVLDVPACQIAIRPEGKNNRLFVFSISMPSVAQWSLDVAADSQEELQDWVKKIREVAQTADARLTEGKMMERRKKIALELSELVVYCRPVPFDEEKIGTERACYRDMSSFPETKAEKYVNKAKGKKFLQYNRLQLSRIYPKGQRLDSSNYDPLPMWICGSQLVALNFQTPDKPMQMNQALFMAGGHCGYVLQPSTMRDEAFDPFDKSSLRGLEPCVICIEVLGARHLPKNGRGIVCPFVEIEVAGAEYDSTKQKTEFVVDNGLNPVWPAKPFHFQISNPEFAFLRFVVYEEDMFSDQNFLAQATFPVKGLKTGYRAVPLKNNYSEDLELASLLIKIDIFPAKENGDLSPFSGISLRERASDASSQLFHVRAREGSFEARYQQPFEDFRISQEHLADHFDSRERSTSDGPSSATNLIEDPLHDKLWKCSL
modifications: tyrosine phosphorylated by EGF receptor
notes: PLC-γ from 3T-P1 cell lysate phosphorylated by the EGF receptor after addition of ATP
- PLC-γ remaining bound to the EGFR after three washes with HNTG: 22+/−4%

Source: patent US6391584B1, “Expression-cloning method for identifying target proteins for eukaryotic tyrosine kinases and novel target proteins” (New York University Medical Center, priority 1991, dated 2002)
